Measured values as given in PMC5511352, “Structural insights into the mycobacteria transcription initiation complex from analysis of X-ray crystal structures”.

Target: T1, RNAP alpha subunit C-terminal domain (alphaCTD, symmetry-related) (Mycobacterium smegmatis (mc2155), UniProt A0QSL8 251-350)
T1 sequence: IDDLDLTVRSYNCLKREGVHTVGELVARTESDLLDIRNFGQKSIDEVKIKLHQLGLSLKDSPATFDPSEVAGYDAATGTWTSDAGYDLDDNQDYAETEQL
Assay: X-ray crystallography (2.76 A); alphaCTD of symmetry-related complex; A/T-rich region -29 to -24; Crystallization: 0.1 M Bis-Tris pH 6.0, 0.2 M Li2SO4 (printed LiSO4), 16% PEG 3350, 2.5% ethylene glycol, 22 C; protein in 20 mM Tris-HCl pH 8, 100 mM K-glutamate, 10 mM MgCl2, 1 mM DTT
Conditions: protein: native; upstream fork (ds/ss junction)

B1: us-fork promoter fragment (mixed)
DNA 1: GCTTGACAAAAGTGTTAAATTGTGCTATACT
DNA 2: AGCACAATTTAACACTTTTGTCAAGC
B1: binds.
